Publication PMC3431827

Target: 2,4,6-TCP 4-monooxygenase (TcpA) from Cupriavidus necator JMP134 (Cupriavidus necator JMP134)
Assay: SEC-MALS; 100 μg TcpA on BioSep-SEC-S 2000 column, isocratic, 0.5 mL/min; multi-angle laser light scattering; tetramer

stoichiometry N: 4
Substance: 2,4,6-TCP 4-monooxygenase (TcpA) from Cupriavidus necator JMP134 (enzyme)
